Consider three substances from US20180298101A1.

pKd: −log10 of the molar value.

Assay [1] addresses JAK1 kinase domain (JH1) (human) (UniProt P23458). The assay can be described thus: cell-based or functional assay.
In another assay the target is JAK2 kinase domain (JH1) (UniProt O60674). The assay can be described thus: cell-based or functional assay.
A further assay concerns the target JAK3 kinase domain (JH1) (UniProt P52333). In words: cell-based or functional assay.
For the next assay, the target named is TYK2 kinase domain (JH1) (UniProt P29597). The assay can be described thus: cell-based or functional assay.
The target in assay [2] is JAK1 activation loop phosphopeptide (Tyr1034 phosphorylated) (human). The assay can be described thus: ITC.
Assay [3] addresses JAK1-Y1034 phosphopeptide with an alanine substitution at the +3 position (human). In words: ITC, alanine-substituted phosphopeptide.

As to “hCIS-SH2-BC complex (ternary complex of human GST-CIS-SH2 construct, residues 66-258 with PEST region 174-202 deleted, with Elongin B and Elongin C) (from UniProt Q9NSE2 66-258; Q15370 1-118; P83940 17-112)”, in assay [1], the IC50 of inhibition of JAK1 phosphorylation of a substrate peptide (in vitro kinase assay) was determined as 120 nM and the efficiency of JAK1 kinase inhibition against SOCS1 as reference stood at 100 fold. In the assay with JAK2 kinase domain (JH1), this substance registered a fold difference of kinase inhibition, JAK1 against JAK2 (in vitro kinase assay) of 20 fold. The substance also showed a fold difference of kinase inhibition, JAK1 against JAK3 (in vitro kinase assay) in the assay with JAK3 kinase domain (JH1) of 20 fold. Also, in the assay with TYK2 kinase domain (JH1), the fold difference of kinase inhibition, JAK1 against TYK2 (in vitro kinase assay) came to 20 fold.
Substance “human CIS lacking the N-terminal 34 residues (ΔN34) in trimeric complex with elongin B and elongin C (from UniProt Q9NSE2 35-258; Q15370 1-118; Q15369 17-112)” gave a pKd in assay [2] of 5.00 to 5.66.
In the case of “human CIS lacking both the N-terminal region (residues 1-66) and the PEST motif (ΔNT/ΔPEST) in trimeric complex with elongin B and elongin C (from UniProt Q9NSE2 67-258; Q15370 1-118; Q15369 17-112)”, the IC50 of inhibition of the JAK1 kinase domain (JH1), in vitro kinase reaction in assay [1] turned out to be 600 nM. The same substance yielded a fold reduction of binding against the wild-type JAK1-Y1034 phosphopeptide in assay [3] of 4 fold.
